Test results reported in CN116262790A (TAIZE HUIKANG BIOMEDICAL CO LTD; BEIJING MIANYI FANGZHOU …, dated 2023).

T1: 人CD27蛋白 (Cat: 10039-H03H, Sino Biological Inc.) (human, UniProt P26842 20-192)
T1 construct: Bought recombinant protein coated on the SPR chip
T1 sequence (looked up): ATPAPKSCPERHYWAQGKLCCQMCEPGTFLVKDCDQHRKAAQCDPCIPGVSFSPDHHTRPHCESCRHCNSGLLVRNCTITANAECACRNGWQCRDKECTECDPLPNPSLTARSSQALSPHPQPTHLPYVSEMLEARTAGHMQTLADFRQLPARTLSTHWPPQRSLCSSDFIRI

T2: 人CD27 (HEK::CD27细胞表达) (human, UniProt P26842 20-260)
T2 construct: whole, on cells; also called hCD27; 表达人CD27的细胞
T2 sequence (looked up): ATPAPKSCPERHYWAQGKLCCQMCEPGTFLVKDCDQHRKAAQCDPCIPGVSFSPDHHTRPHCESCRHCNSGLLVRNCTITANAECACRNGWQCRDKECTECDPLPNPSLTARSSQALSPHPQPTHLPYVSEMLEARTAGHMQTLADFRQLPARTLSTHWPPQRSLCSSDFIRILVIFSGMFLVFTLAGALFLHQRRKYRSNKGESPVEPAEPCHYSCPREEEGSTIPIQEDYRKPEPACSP


Experiments:
[1] = molecular target: T1, 人CD27蛋白 (Cat: 10039-H03H, Sino …); assay: SPR (Reichert4), human CD27 protein on chip, antibody at 6.25e-9 as analyte
[2] = molecular target: T1, 人CD27蛋白 (Cat: 10039-H03H, Sino …); assay: SPR (Reichert4), human CD27 protein on chip, antibody at 1.25e-8 as analyte
[3] = molecular target: T1, 人CD27蛋白 (Cat: 10039-H03H, Sino …); assay: SPR (Reichert4), human CD27 protein on chip, antibody at 5.00e-8 as analyte
[4] = molecular target: T1, 人CD27蛋白 (Cat: 10039-H03H, Sino …); assay: SPR (Reichert4), human CD27 protein on chip, antibody at 2.50e-8 as analyte
[5] = molecular target: 人CD27 (HEK::CD27细胞表达) (human) (UniProt P26842); assay: flow cytometry on cells expressing human CD27; parameters: concentration or dose not given beside the values
人CD27 (HEK::CD27细胞表达) = molecular target: T2, 人CD27 (HEK::CD27细胞表达); assay: flow cytometry on HEK::CD27 cells, 10 ng and 100 ng antibody

Kd [1] | koff [1] | kon [1] | Kd [2] | koff [2] | kon [2] | Kd [3] | koff [3] | kon [3] | Kd [4] | koff [4] | kon [4] | 结合率 [5] | binding result (人CD27 (HEK::CD27细胞表达)) | Binder
0.514 nM | 9.69e-05 s⁻¹ | 188000 M⁻¹ s⁻¹ | 0.514 nM | 9.69e-05 s⁻¹ | 188000 M⁻¹ s⁻¹ | 0.514 nM | 9.69e-05 s⁻¹ | 188000 M⁻¹ s⁻¹ | 0.514 nM | 9.69e-05 s⁻¹ | 188000 M⁻¹ s⁻¹ | > 85% | – | 6D8 (antibody, V domains shown, also called 6D8抗体; 鼠抗人CD27单克隆抗体6D8) VH: QIQLVQSGPELKKPGETVKISCKASGYTFTNYGMNWVKQAPGKGLKWMGWINTNTGEPTYADDFKGRFAFSLETSATTAYLQINNLKNEDTATYFCAREGDGFDSWGQGTTLTVSS VL: QFVLTQSPAIMSASPGEKVTMTCSATSSVNYMHWYQQKSGTSPKRWIYDTSRLASGVPARFSGSGSGTSYSLTISSMEAEDAATYYCQQWNTNPWTFGGGTKLEIK
– | – | – | – | – | – | – | – | – | – | – | – | – | binds | 6D8-G98A (antibody, human IgG4, V domains shown, also called 嵌合的6D8-G98A; 6D8-G98A(人鼠嵌合抗体)) VH: QIQLVQSGPELKKPGETVKISCKASGYTFTNYGMNWVKQAPGKGLKWMGWINTNTGEPTYADDFKGRFAFSLETSATTAYLQINNLKNEDTATYFCAREGDAFDSWGQGTTLTVSS VL: QFVLTQSPAIMSASPGEKVTMTCSATSSVNYMHWYQQKSGTSPKRWIYDTSRLASGVPARFSGSGSGTSYSLTISSMEAEDAATYYCQQWNTNPWTFGGGTKLEIK
0.00185 nM | 2.14e-07 s⁻¹ | 116000 M⁻¹ s⁻¹ | 0.00185 nM | 2.14e-07 s⁻¹ | 116000 M⁻¹ s⁻¹ | 0.00185 nM | 2.14e-07 s⁻¹ | 116000 M⁻¹ s⁻¹ | 0.00185 nM | 2.14e-07 s⁻¹ | 116000 M⁻¹ s⁻¹ | – | – | Varlilumab (antibody, V domains shown) VH: QVQLVESGGGVVQPGRSLRLSCAASGFTFSSYDMHWVRQAPGKGLEWVAVIWYDGSNKYYADSVKGRFTISRDNSKNTLYLQMNSLRAEDTAVYYCARGSGNWGFFDYWGQGTLVTVSS VL: DIQMTQSPSSLSASVGDRVTITCRASQGISRWLAWYQQKPEKAPKSLIYAASSLQSGVPSRFSGSGSGTDFTLTISSLQPEDFATYYCQQYNTYPRTFGQGTKVEIKR
